Laboratory results from article PMC8961631.

Biological target: glycosylated myrosinase without GST-tag (produced in S. cerevisiae MGY70-myr) (broccoli)
Experiment: SEC; Sephacryl S-200 HR column 0.7 x 30 cm, 1 mL of purified myrosinase fraction (1 mg/mL) loaded, 0.3 mL/min, 0.2 M Tris-HCl pH 7.4; mass from a calibration curve with protein standards; self-association, monomer to dimer

stoichiometry N: 2
Substance: glycosylated myrosinase without GST-tag (produced in S. cerevisiae MGY70-myr) (enzyme)
